Like-named read-outs stand apart in the source and are kept apart here.
Experiments:
[1] = target: HA of A/Vietnam/1203/2004 (H5N1) (influenza A virus (H5N1)); experiment: ELISA, recombinant HA
[2] = target: HA of A/chicken/Germany/N/1948 (H10N7) (influenza A virus (H10N7)); experiment: ELISA, recombinant HA
[3] = target: HA of A/California/07/2004 (H3) (Influenza A virus A/California/07/2004 (H3)); experiment: ELISA, recombinant HA
[4] = target: HA of A/Fort Monthouth/1947 (H1N1) (influenza A virus (H1N1)); experiment: ELISA, recombinant HA
[5] = target: HA of A/Taiwan/2/2013 (H6) (Influenza A virus A/Taiwan/2/2013 (H6)); experiment: ELISA, recombinant HA
[6] = target: HA of A/duck/Memphis/546/1974 (H11) (Influenza A virus A/duck/Memphis/546/1974 (H11)); experiment: ELISA, recombinant HA
[7] = target: HA of A/turkey/Ontario/6118/1967 (H8) (Influenza A virus A/turkey/Ontario/6118/1967 (H8)); experiment: ELISA, recombinant HA
[8] = target: HA of A/shearwater/Western Australia/2576/1979 (H15N9) (influenza A virus (H15N9)); experiment: ELISA
[9] = target: HA of A/Solomon Islands/03/2006 (H1N1) (influenza A virus (H1N1)); experiment: ELISA
[10] = target: HA of A/Texas/36/1991 (H1N1) (influenza A virus (H1N1)); experiment: ELISA
[11] = target: HA of A/mallard duck/Astrakhan/263/1982 (H14N5) (influenza A virus (H14N5)); experiment: ELISA
[12] = target: HA of A/Indonesia/5/2005 (H5N1) (influenza A virus (H5N1)); experiment: ELISA
[13] = target: HA of A/Netherlands/219/2003 (H7N7) (influenza A virus (H7N7)); experiment: ELISA
[14] = target: HA of A/Hong Kong/1073/99 (H9) (influenza A virus (H9)); experiment: ELISA
[15] = target: HA of A/Texas/50/2012 (H3N2) (influenza A virus (H3N2)); experiment: ELISA
[16] = target: HA of A/Shanghai/2/2013 (H7N9) (influenza A virus (H7N9)); experiment: ELISA
[17] = target: HA of A/shearwater/Western Australia/2576/1979 (H15N9) (influenza A virus (H15N9)); experiment: ELISA, recombinant HA
[18] = target: HA of A/Switzerland/9715293/2013 (H3) (influenza A virus (H3)); experiment: ELISA, recombinant HA
[19] = target: HA of A/Solomon Islands/03/2006 (H1N1) (influenza A virus (H1N1)); experiment: ELISA, recombinant HA
[20] = target: HA of A/Texas/36/1991 (H1N1) (influenza A virus (H1N1)); experiment: ELISA, recombinant HA
[21] = target: HA of A/chicken/Germany/N/1948 (H10N7) (influenza A virus (H10N7)); experiment: ELISA, recombinant HA; remark: listed apart in the source
[22] = target: HA of A/Fort Monthouth/1947 (H1N1) (influenza A virus (H1N1)); experiment: ELISA, recombinant HA; remark: listed apart in the source
[23] = target: HA of A/Taiwan/2/2013 (H6) (Influenza A virus A/Taiwan/2/2013 (H6)); experiment: ELISA, recombinant HA; remark: listed apart in the source
[24] = target: HA of A/mallard duck/Astrakhan/263/1982 (H14N5) (influenza A virus (H14N5)); experiment: ELISA, recombinant HA
[25] = target: HA of A/Indonesia/5/2005 (H5N1) (influenza A virus (H5N1)); experiment: ELISA, recombinant HA
[26] = target: HA of A/Netherlands/219/2003 (H7N7) (influenza A virus (H7N7)); experiment: ELISA, recombinant HA
[27] = target: HA of A/Hong Kong/1073/99 (H9) (influenza A virus (H9)); experiment: ELISA, recombinant HA
[28] = target: HA of A/Texas/50/2012 (H3N2) (influenza A virus (H3N2)); experiment: ELISA, recombinant HA
[29] = target: HA of A/Shanghai/2/2013 (H7N9) (influenza A virus (H7N9)); experiment: ELISA, recombinant HA
[30] = target: HA of A/Switzerland/9715293/2013 (H3) (influenza A virus (H3)); experiment: ELISA
[31] = target: HA of A/Vietnam/1203/2004 (H5N1) (influenza A virus (H5N1)); experiment: ELISA
[32] = target: HA of A/black-headed gull/Sweden/4/1999 (H16) (influenza A virus (H16)); experiment: ELISA
[33] = target: HA of A/Solomon Islands/03/2006 (H1N1) (influenza A virus (H1N1)); experiment: ELISA; remark: listed apart in the source
[34] = target: HA of A/Texas/36/1991 (H1N1) (influenza A virus (H1N1)); experiment: ELISA; remark: listed apart in the source
[35] = target: HA of A/gull/Maryland/704/1977 (H13) (influenza A virus (H13)); experiment: ELISA
[36] = target: HA of A/mallard duck/Astrakhan/263/1982 (H14N5) (influenza A virus (H14N5)); experiment: ELISA; remark: listed apart in the source
[37] = target: HA of A/Indonesia/5/2005 (H5N1) (influenza A virus (H5N1)); experiment: ELISA; remark: listed apart in the source
[38] = target: HA of A/Hong Kong/1073/99 (H9) (influenza A virus (H9)); experiment: ELISA; remark: listed apart in the source
[39] = target: HA of A/New York/107/2003 (H7N2) (influenza A virus (H7N2)); experiment: ELISA
[40] = target: HA of A/Texas/50/2012 (H3N2) (influenza A virus (H3N2)); experiment: ELISA; remark: listed apart in the source
[41] = target: HA of A/Shanghai/2/2013 (H7N9) (influenza A virus (H7N9)); experiment: ELISA; remark: listed apart in the source
[42] = target: HA of A/Minnesota/11/10 (H3) (influenza A virus (H3)); experiment: ELISA
[43] = target: dimeric recombinant soluble FcγRIIIa (CD16a), V176 (UniProt P08637)
Chain of dimeric recombinant soluble FcγRIIIa (CD16a), V176 (P08637 17-208 F176V limits assumed): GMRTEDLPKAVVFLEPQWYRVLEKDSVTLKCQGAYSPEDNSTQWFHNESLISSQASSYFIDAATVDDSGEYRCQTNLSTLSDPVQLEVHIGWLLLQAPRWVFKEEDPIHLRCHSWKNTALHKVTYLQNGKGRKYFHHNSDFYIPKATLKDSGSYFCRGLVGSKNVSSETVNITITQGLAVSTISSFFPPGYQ

[44] = target: dimeric recombinant soluble FcγRIIIa (CD16a), V176 (UniProt P08637); remark: listed apart in the source
[45] = target: HA of A/shearwater/Western Australia/2576/1979 (H15N9) (influenza A virus (H15N9)); experiment: ELISA, recombinant HA; remark: listed apart in the source
[46] = target: HA of A/Solomon Islands/03/2006 (H1N1) (influenza A virus (H1N1)); experiment: ELISA, recombinant HA; remark: listed apart in the source
[47] = target: HA of A/Texas/36/1991 (H1N1) (influenza A virus (H1N1)); experiment: ELISA, recombinant HA; remark: listed apart in the source
[48] = target: HA of A/mallard duck/Astrakhan/263/1982 (H14N5) (influenza A virus (H14N5)); experiment: ELISA, recombinant HA; remark: listed apart in the source
[49] = target: HA of A/Indonesia/5/2005 (H5N1) (influenza A virus (H5N1)); experiment: ELISA, recombinant HA; remark: listed apart in the source
[50] = target: HA of A/Netherlands/219/2003 (H7N7) (influenza A virus (H7N7)); experiment: ELISA, recombinant HA; remark: listed apart in the source
[51] = target: HA of A/Hong Kong/1073/99 (H9) (influenza A virus (H9)); experiment: ELISA, recombinant HA; remark: listed apart in the source
[52] = target: HA of A/Texas/50/2012 (H3N2) (influenza A virus (H3N2)); experiment: ELISA, recombinant HA; remark: listed apart in the source
[53] = target: HA of A/Shanghai/2/2013 (H7N9) (influenza A virus (H7N9)); experiment: ELISA, recombinant HA; remark: listed apart in the source
[54] = target: HA of A/Switzerland/9715293/2013 (H3) (influenza A virus (H3)); experiment: ELISA; remark: listed apart in the source

## rFluA-20 (recombinant FluA-20 IgG) (antibody)
[1]
  EC50: 0.133 µg/mL
[2]
  EC50: 0.041 µg/mL
[3]
  EC50: 0.009 µg/mL
[4]
  EC50: 0.007 µg/mL
[5]
  EC50: 0.063 µg/mL
[6]
  EC50: 0.076 µg/mL
[7]
  EC50: 0.005 µg/mL
[8]
  EC50: 0.007 µg/mL
[9]
  EC50: 0.008 µg/mL
[10]
  EC50: 0.008 µg/mL
[11]
  EC50: 0.007 µg/mL
[12]
  EC50: 0.016 µg/mL
[13]
  EC50: 0.005 µg/mL
[14]
  EC50: 0.007 µg/mL
[15]
  EC50: 0.007 µg/mL
[16]
  EC50: 0.013 µg/mL
[17]
  EC50: 0.136 µg/mL
[18]
  EC50: 0.548 µg/mL
[19]
  EC50: 0.047 µg/mL
[20]
  EC50: 0.046 µg/mL
[21]
  EC50: 0.129 µg/mL
[22]
  EC50: 0.02 µg/mL
[23]
  EC50: 0.229 µg/mL
[24]
  EC50: 0.071 µg/mL
[25]
  EC50: 6.05 µg/mL
[26]
  EC50: 0.054 µg/mL
[27]
  EC50: 0.407 µg/mL
[28]
  EC50: 0.086 µg/mL
[29]
  EC50: 0.117 µg/mL

## FluA-20 (hybridoma-produced IgG) (antibody)
[30]
  EC50: 0.019 µg/mL
[31]
  EC50: 0.283 µg/mL
[32]
  EC50: > 10 µg/mL
[33]
  EC50: 0.005 µg/mL
[34]
  EC50: 0.004 µg/mL
[35]
  EC50: 0.07 µg/mL
[36]
  EC50: 0.013 µg/mL
[37]
  EC50: 0.085 µg/mL
[38]
  EC50: 0.009 µg/mL
[39]
  EC50: 0.808 µg/mL
[40]
  EC50: 0.004 µg/mL
[41]
  EC50: 0.066 µg/mL
[42]
  EC50: > 10 µg/mL
[43]
  EC50 (read off the curve): 0.3 µg/mL
[44]
  EC50 (read off the curve): 0.3 µg/mL
[45]
  EC50: 0.007 µg/mL
[1]
  EC50: 0.142 µg/mL
[46]
  EC50: 0.008 µg/mL
[47]
  EC50: 0.009 µg/mL
[2]
  EC50: 0.037 µg/mL
[3]
  EC50: 0.008 µg/mL
[4]
  EC50: 0.007 µg/mL
[5]
  EC50: 0.061 µg/mL
[48]
  EC50: 0.007 µg/mL
[49]
  EC50: 0.016 µg/mL
[50]
  EC50: 0.006 µg/mL
[51]
  EC50: 0.007 µg/mL
[6]
  EC50: 0.072 µg/mL
[52]
  EC50: 0.006 µg/mL
[7]
  EC50: 0.005 µg/mL
[53]
  EC50: 0.012 µg/mL
[8]
  EC50: 0.08 µg/mL
[54]
  EC50: 0.55 µg/mL
[9]
  EC50: 0.05 µg/mL
[10]
  EC50: 0.05 µg/mL
[11]
  EC50: 0.95 µg/mL
[12]
  EC50: 6.05 µg/mL
[13]
  EC50: 0.05 µg/mL
[14]
  EC50: 0.41 µg/mL
[15]
  EC50: 0.09 µg/mL
[16]
  EC50: 0.12 µg/mL
[17]
  EC50: 0.015 µg/mL
[21]
  EC50: 0.031 µg/mL
[22]
  EC50: 0.012 µg/mL
[23]
  EC50: 0.147 µg/mL
[26]
  EC50: 0.029 µg/mL

Reference: patent publication US20210252150A1
